The target in the experiment is T1, fibrinogen (Homo sapiens, UniProt P02671+P02675+P02679).
T1 sequence (P02671 20-629 limits assumed): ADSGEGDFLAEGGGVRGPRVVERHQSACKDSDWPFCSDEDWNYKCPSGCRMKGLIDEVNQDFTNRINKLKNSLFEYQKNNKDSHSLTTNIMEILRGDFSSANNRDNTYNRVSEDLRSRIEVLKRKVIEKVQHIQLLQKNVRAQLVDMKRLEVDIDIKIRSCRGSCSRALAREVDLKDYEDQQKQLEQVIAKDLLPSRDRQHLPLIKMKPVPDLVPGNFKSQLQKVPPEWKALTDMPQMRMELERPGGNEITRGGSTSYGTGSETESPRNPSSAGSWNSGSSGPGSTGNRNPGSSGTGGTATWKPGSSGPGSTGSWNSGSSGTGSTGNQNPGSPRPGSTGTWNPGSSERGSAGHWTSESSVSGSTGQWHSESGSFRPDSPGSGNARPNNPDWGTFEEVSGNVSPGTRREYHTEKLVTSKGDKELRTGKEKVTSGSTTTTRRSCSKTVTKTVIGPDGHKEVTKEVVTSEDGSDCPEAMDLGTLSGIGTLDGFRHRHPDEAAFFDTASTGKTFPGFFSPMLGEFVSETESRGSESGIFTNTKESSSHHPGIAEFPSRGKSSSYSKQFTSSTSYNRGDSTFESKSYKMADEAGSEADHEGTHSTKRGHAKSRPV
T1 sequence (P02675 31-491): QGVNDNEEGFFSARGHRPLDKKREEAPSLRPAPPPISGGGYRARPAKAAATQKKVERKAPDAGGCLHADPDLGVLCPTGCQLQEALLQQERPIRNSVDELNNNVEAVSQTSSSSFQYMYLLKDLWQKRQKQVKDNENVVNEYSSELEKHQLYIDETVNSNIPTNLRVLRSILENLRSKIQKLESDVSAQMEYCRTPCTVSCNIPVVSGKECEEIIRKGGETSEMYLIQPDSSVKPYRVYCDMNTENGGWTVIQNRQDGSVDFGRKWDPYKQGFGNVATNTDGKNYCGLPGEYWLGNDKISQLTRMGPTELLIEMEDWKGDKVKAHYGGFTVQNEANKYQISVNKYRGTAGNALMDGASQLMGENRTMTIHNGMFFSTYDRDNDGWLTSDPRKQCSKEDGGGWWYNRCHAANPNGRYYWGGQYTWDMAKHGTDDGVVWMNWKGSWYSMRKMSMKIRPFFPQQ
T1 sequence (P02679 27-453): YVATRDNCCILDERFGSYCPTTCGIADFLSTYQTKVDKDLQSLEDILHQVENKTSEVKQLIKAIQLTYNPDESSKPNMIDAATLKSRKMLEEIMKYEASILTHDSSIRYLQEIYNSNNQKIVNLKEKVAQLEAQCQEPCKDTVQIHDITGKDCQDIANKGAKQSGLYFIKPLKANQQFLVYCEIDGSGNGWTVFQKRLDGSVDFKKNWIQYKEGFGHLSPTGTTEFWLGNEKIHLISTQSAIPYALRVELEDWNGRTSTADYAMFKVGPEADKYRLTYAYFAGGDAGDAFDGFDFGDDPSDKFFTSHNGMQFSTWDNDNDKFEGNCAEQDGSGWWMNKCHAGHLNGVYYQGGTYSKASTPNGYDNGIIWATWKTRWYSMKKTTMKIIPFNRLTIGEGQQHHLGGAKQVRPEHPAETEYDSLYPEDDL
The experiment in a line: ELISAs of H6 binding to fibrinogen in various states of unfolding. How it is done: Characterization of H6 binding to fibrin was determined through a series of experiments designed to test the ability of H6 to bind fibrinogen in various states of unfolding.
In the first experiment ELISAs, as described previously, were performed comparing the ability of H6 to bind fibrinogen that was either passively adsorbed to a glass surface or immobilized to a glass surface, the assumption being that fibrinogen exists in a more unfolded state when adsorbed in comparison to when its immobilized on a surface.
This experiment was repeated comparing the ability of H6 to bind fibrinogen passively adsorbed to a plastic surface after having been heat-denatured, or not, with the assumption being that heat-denatured fibrinogen exists in a more unfolded state than that of fibrinogen that was not heat-denatured.
Finally, this experiment was repeated to compare the ability of H6 to bind fibrinogen that was passively adsorbed after no treatment, heat denaturing, heat denaturing plus reduction of sulfide bonds, or just reduction of sulfide bonds. The assumption is that reduction of sulfide bonds within a fibrinogen molecule in addition to heat denaturing result in an even greater extent of molecular unfolding than compared to heat denaturing alone.

B1: H6: fibrin-specific human sdFv clone from phage biopanning, SEQ ID NO: 1 (protein)
VHH: QVQLLESGGGLVQPGGSLRLSCAASGDRFTHNDMGWVRQAPGKGLEWVSTIPTTDGSTYYADSVKGRFTISRDNSKSTLYLQMNSLRAEDTAVYYCATGYMWKAPAYVKYWGQGTLVTVSSAAAEQKLISEEDLNSAAHYTDIG
As for B1, the “binding to fibrinogen on glass surface” value (adsorbed and immobilized fibrinogen) is “weak”. Also, the “binding to immobilized versus adsorbed fibrinogen” value (glass surface) is recorded as “dose-dependent decrease in binding”. In addition, where the note is “heat-denatured or not”, the “binding to fibrinogen adsorbed to plastic surface” value is “weak binding”. Moreover, the “binding to fibrinogen versus degree of unfolding” value (no treatment, heat denaturing, reduction of sulfide bonds, or both) is on record as “positively correlated to the degree of unfolding”. Moreover, the “binding to heat-denatured versus un-denatured fibrinogen” value (plastic surface) is on record as “dose-dependent enhanced ability”.

The values are drawn from patent publication US11419948B2, “Functionalized microgels with fibrin binding elements” (Georgia Tech Research Corporation, priority 2013, dated 2022).
